The source of these data is patent EP4541444A1 (Cytiva BioProcess R&D AB, dated 2025).

This assay deals with T1, human serum albumin (human, UniProt P02768 25-609).
T1 construct: also called HSA
Description: SPR (Biacore), ligand immobilized on chip.

B1: scFvHSA (scFv)
scFv: EVQLLESGGGLVQPGGSLRLSCAVSGIDLSNYAINWVRQAPGKGLEWIGIIWASGTTFYATWAKGRFTISRDNSKNTVYLQMNSLRAEDTAVYYCARTVPGYSTAPYFDLWGQGTLVTVSSGGGGSGGGGSGGGGSDIQMTQSPSSVSASVGDRVTITCQSSPSVWSNFLSWYQQKPGKAPKLLIYEASKLTSGVPSRFSGSGSGTDFTLTISSLQPEDFATYYCGGGYSSISDTTFGGGTKVEIKRTVQASGSHHHHHH
notes: also called anti-HSA scFv
As to B1, the binding result is “binds”.
